{"source": "patent US12552837B2", "about": "“Bicyclic peptide ligands with detectable moieties and uses thereof” (BicycleRD Limited, priority 2017, dated 2026)", "key": {"MT1-MMP hemopexin domain": {"molecular_target": "MT1-MMP hemopexin domain (Homo sapiens, UniProt P50281)", "assay": "Fluorescence polarization direct binding / competition assay to MT1-MMP hemopexin domain", "protocol": "Direct Binding Fluorescence Polarization or Anisotropy Assays are performed by titrating a constant concentration of fluorescent tracer (here, the fluoresceinated bicyclic peptide to be studied) with its binding partner (here, the MT1-MMP hemopexin domain). As the concentration of binding partner increases during the titration, the polarization signal changes in proportion to the fraction of bound and unbound material. This allows determination of […] (Kd) quantitatively. Assay data can be fit using standard ligand binding equations.\nTypically, concentrations of the tracer are ideally well below the Kd of the tracer: titrant pair, and concentrations chosen are usually at ˜1 nM or less. The titrant (binding partner) concentration is varied from 0.1 nM up to typically 5 μM. The range is chosen such that the maximum change in fluorescent polarization can be observed. Buffers employed are phosphate buffered saline in the presence of 0.01% Tween. Experiments were run in black 384 well low-bind/low volume plates (Corning 3820), and the fluorescent polarization signal was measured using a BMG Pherastar FS plate reader. Fluorescent tracers referred to in the text are bicyclic peptides that have been fluoresceinated using 5,6-carboxyfluorescein. Fluoresceination may be performed on the N-terminal amino group of the peptide, which is separated from the bicycle core sequence by a sarcosine spacer (usually Sar10 (SEQ ID NO: 73)). This can be done during Fmoc solid phase synthesis or post-synthetically (after cyclization with the molecular scaffold reagent and purification) if the N-terminal amino group is unique to the peptide. Fluoresceination can also be performed on the C-terminus, usually on a Lysine introduced as the first C-terminal residue, which is then separated from the bicycle core sequence by a sarcosine spacer (usually Sar6 (SEQ ID NO: 69)). Thus, N-terminal tracers can have a molecular format described as Fluo-Ala-Sar10-A (SEQ ID NO: 72) (BicycleCoreSequence), and (BicycleCoreSequence)-A-Sar6-K (Fluo) (SEQ ID NO: 67) for a C-terminally fluoresceinated construct.\nFluorescent tracers used in the Examples are A-(17-69)-A-Sar6-K (Fluo) (SEQ ID NO: 67), A-(17-69-07)-A-Sar6-K (Fluo) (SEQ ID NO: 67), and A-(17-69-12)-A-Sar6-K (Fluo) (SEQ ID NO: 67). Due to the acidic nature of the 17-69 fluorescent peptides, they were typically prepared as concentrated DMSO stocks, from which dilution were prepared in 100 mM Tris pH 8 buffer.\nDue to their high affinities to the MT1-MMP Hemopexin domain (PEX), the fluoresceinated derivatives of 17-69-07 and 17-69-12 (denoted as 17-69-07-N040 and 17-69-12-N005, respectively) can be used for competition experiments (using FP for detection). […] Dissociation of the complex can be measured quantitatively, and the Kd of the competitor (titrant) to the target protein determined. The advantage of the competition method is that the affinities of non-fluoresceinated bicyclic peptides can be determined accurately and rapidly.\nSubsequently, the non-fluorescent competitor bicyclic peptide (usually just the bicycle core sequence) is titrated, such that it displaces the fluorescent tracer from the target protein. The displacement of the tracer is measured and associated with a drop in fluorescence polarization. The drop in fluorescence polarization is proportional to the fraction of target protein bound with the non-fluorescent titrant, and thus is a measure of the affinity of titrant to target protein. […]"}, "[1]": {"assay": "Organ distribution of 177Lu-labelled peptides in HT1080 xenograft mice", "assay_type": "in vivo, BALB/c nu/nu mice", "details": "male, BALB/c nu/nu, iv, total radioactivity", "protocol": "(§1) General procedure for radiolabelling with Lu-177.\n(§2) • 50 μL 0.25 M Na-Acetate buffer pH 5.2+0.1% Tween 20; • 10 μL [Lu-177]LuCl3 in 0.05 M HCl; and • 2 μL of the diluted peptide (2 nmols). […]\n(§3) Organ distribution studies, general method: For organ distribution, the respective dose is prepared by dilution of the labeling reaction mixture in injection buffer (0.25 M Na-Acetate pH 7+0.05% Tween20). The ^177Lu-radiolabeled peptide was injected via the tail vein of the nu/nu mice (50 kBq per mouse), transplanted with the respective cell line. At indicated time points after injection the animals were sacrificed. Blood, heart, lung, spleen, liver, kidney, muscle, brain, femur, and the tumor were dissected, blotted dry, and weighed. The radioactivity was measured with a γ-counter (CobraII; Canberra Packard) along with a sample of the injection solution to calculate the percentage injected dose per gram of tissue (% ID/g).\n(§4) The γ- and β-emitter ^177LuCl3 (NEZ307D, Perkin Elmer, in 0.04 M HCl), with a t1/2 of 6.7 days was used for both in vivo biodistribution and internalization studies. Labeling reactions were performed by adding 10 μL ^177LuCl3 (˜10 MBq) in 50 mM HCl, 2 μL of the diluted peptide (1 mM solution in 50 mM HEPES buffer pH 7+0.1% Tween 20 diluted from a 10 mM DMSO stock) to 50 μL 50 mM HEPES buffer pH 7 supplemented with 0.1% Tween 20. The reaction mixture was incubated at 98° C. for 10 minutes. The radiochemical yield (RCY) was determined using high performance liquid chromatography (HPLC) system equipped with a Latek P402 (Latek, Eppelheim, Germany), a HITACHI variable UV detector (absorbance was measured at 214 and 254 nm) and a gamma detector (Bioscan, WA, USA), using a Chromolith RP-18 column (100×4.6 mm; Merck). The analytical HPLC run was performed at 4 mL/min, using a linear A (0.1% trifluoroacetic acid (TFA) in water) to B (0.1% TFA in acetonitrile) gradient (0% B to 100% B in 6 min). Thin-layer chromatography was performed in parallel to confirm the results of the radio-HPLC. The RCY was generally >95%, and thus, the output of labelling reactions was directly diluted with the appropriate buffer and further unlabeled peptide if required, to use in subsequent experiments.\n(§5) 5×10^6 cells of HT1080 were subcutaneously inoculated into the right trunk of male 6-week-old BALB/c nu/nu mice (Charles River Laboratories). The tumors were grown for approximately 1 week, to a maximum size of ˜200 mm^3. Respective doses were prepared by mixing a fixed quantity of 5 pmoles ^177Lu labelled peptides (at approx. 50 kBq) with different quantities of non-labelled peptide (derived from 1 mM stock solution in 0.25 M sodium acetate pH 7+0.05% Tween20) in 100 μL injection buffer (0.25 M sodium acetate pH 7+0.05% Tween20). 3 animals were used per dose and timepoint. Radiolabelled peptide solutions were injected via the tail vein, followed by sacrifice at various time points. Organs of interest (blood, heart, lung, spleen, liver, kidney, muscle, small intestine, brain, HT1080 tumor) were dissected, blotted dry, and weighed. The radioactivity was measured using a gamma counter and calculated as % ID/g."}, "HT1080 tumor": {"test_system": "HT1080 tumor", "assay": "Organ distribution of 177Lu-labelled peptides in HT1080 xenograft mice", "assay_type": "in vivo, BALB/c nu/nu mice", "details": "177Lu-labelled, 48 hr p.i.", "protocol": "as §1, §2, §3, §4, §5"}}, "note": "Where two headings read alike, the source gives them in different places. *1 amine or outer side, *2 acyl side, *3 side chain or, on linkers, in order; H or OH if unused. Where a SMILES comes first, the peptide text is derived from it. Bridges are numbered along the chain shown (N, C = ends). [ ]: non-standard residue; d: D form. The star is where a group is joined. DOTA = O=C(O)CN1CCN(CC(=O)O)CCN(CC(=O)*)CCN(CC(=O)O)CC1; 1Nal = N[C@@H](Cc1cccc2ccccc12)C(=O)O; TBMB = c1c(C[*:1])cc(C[*:3])cc1C[*:2]; Palmitoyl = CCCCCCCCCCCCCCCC(=O)*; Tle = CC(C)(C)[C@H](N)C(=O)O; βAla = NCCC(=O)O; Sar = CNCC(=O)O", "data": [{"smiles": "CCCCCCCCCCCCCCCC(=O)NCCC(=O)N(C)CC(=O)N(C)CC(=O)N(C)CC(=O)N(C)CC(=O)N(C)CC(=O)N[C@@H](CCCCNC(=O)CN1CCN(CC(=O)O)CCN(CC(=O)O)CCN(CC(=O)O)CC1)C(=O)N(C)CC(=O)N(C)CC(=O)N(C)CC(=O)N(C)CC(=O)N(C)CC(=O)N(C)CC(=O)N(C)CC(=O)N(C)CC(=O)N(C)CC(=O)N(C)CC(=O)N[C@@H](C)C(=O)N[C@H]1CSCc2cc3cc(c2)CSC[C@H](NC(=O)[C@@H](C)NC(=O)[C@H](Cc2cccc4ccccc24)NC(=O)[C@H](CCC(=O)O)NC(=O)[C@H](CC(N)=O)NC(=O)[C@@H](C)NC1=O)C(=O)N[C@@H](CCC(=O)O)C(=O)N[C@@H](CC(=O)O)C(=O)N[C@@H](Cc1ccccc1)C(=O)N[C@@H](Cc1ccc(O)cc1)C(=O)N[C@@H](CC(=O)O)C(=O)N[C@@H](C(C)(C)C)C(=O)N[C@H](C(N)=O)CSC3", "note": "[I-25] ({Palmitoyl-βAla}-[Sar][Sar][Sar][Sar][Sar]K(DOTA)[Sar][Sar][Sar][Sar][Sar][Sar][Sar][Sar][Sar][Sar]AC[dA]NE[1Nal][dA]CEDFYD[Tle]C-NH2; linker 18-24-31 via TBMB)", "values": [{"measurement": "Kd", "setting": "MT1-MMP hemopexin domain", "result": "2.25 ± 0.5", "unit": "nM"}, {"measurement": "tissue to tissue ratio at 6 h", "setting": "[1]; HT1080 tumor / blood, 750 pmole/mouse, 6 hrs, read-out: tumour to blood signal ratio", "result": 19}, {"measurement": "tissue to tissue ratio at 48 h", "setting": "[1]; HT1080 tumor / blood, 750 pmole/mouse, 48 hrs, read-out: tumour to blood signal ratio", "result": 97}, {"measurement": "tissue uptake at 2 h", "setting": "[1]; HT1080 tumor, 750 pmole/mouse, 2 h p.i., read-out: tumour accumulation", "result": "25 ± 1.61", "unit": "%ID/g"}, {"measurement": "tissue uptake at 6 h", "setting": "[1]; HT1080 tumor, 750 pmole/mouse, 6 h p.i., read-out: tumor uptake (maximum)", "result": "35.9 ± 1.11", "unit": "%ID/g"}, {"measurement": "tissue uptake at 48 h", "setting": "[1]; HT1080 tumor, 177Lu-labelled, 48 hr p.i., 750-1000 pmole/mouse, read-out: tumour signal", "result": "~26", "unit": "%ID/g"}, {"measurement": "tissue uptake at 48 h", "setting": "[1]; mouse, HT1080 tumor, 750 pmoles injected dose, 48 h p.i., read-out: tumor accumulation in HT1080 xenografts", "result": "24.1 ± 2.5", "unit": "%ID/g"}, {"measurement": "signals in spleen, liver and small intestine", "setting": "HT1080 tumor", "result": "< 4.5", "unit": "%"}]}]}
